Measured values as given in patent publication US7354588B1, “Functional derivatives of ICAM-1 with altered ability to bind LFA-1 or HRV” (Dana Farber Cancer Institute, priority 1987, dated 2008).
“Also recorded” adds a separate entry of the source.

How the values were obtained:
[1] = target: T1, LFA-1 (Homo sapiens, UniProt P05107+P20701); assay: Adherence of COS cells expressing ICAM-1 or ICAM-1 mutants to plastic-bound purified LFA-1; type: cell-based; settings: for LFA-1 Binding %: COS cells expressing ICAM-1 mutant adhering to LFA-1 coated plastic, normalized for percent of cells expressing mutant and for wild type binding, mean
T1 construct: endogenous in cells

[2] = system: HRV14; assay: Binding of [^35S]-Met labeled HRV14 to COS cells expressing ICAM-1 mutants; type: cell-based, human rhinovirus 14; settings: for HRV Binding %: 35S met-labeled HRV14 binding to COS cells expressing ICAM-1 mutant, normalized for percent of cells expressing mutant and for wild type binding, mean
[3] = system: CL203 mAb; assay: Indirect immunofluorescence flow cytofluorometry: mAb CL203 binding to COS cells expressing ICAM-1 mutants (SLFI, % WT); type: cell-based; settings: SLFI of CL203 for mutant normalized to wild type CL203 SLFI; level of expression
Protocol: (§1) For HRV binding studies, COS cells were reseeded in a 24 well plate. One day later, the confluent monolayer was washed twice with 1 ml of RPMI 1640/10 mM MgCl2/25 mM Hepes pH 7.3 (rhinovirus-14 buffer). Transfected COS cells were labeled with 51Cr for binding to LFA-1 coated plastic as previously described (Staunton, D. E., et al., Nature 339:61-64 (1989). Immunoprecipitation and indirect immunofluorescence was performed using ICAM-1 MAb RR1/1 (Rothlein, R., et al., J. Immunol. 137:1270-1274 (1986)), R6.5 (Rothlein, R., et al., J. Immunol. 141:1665-1669 (1988)), LB-1 (Clark, E. A., et al., Hum. Immunol. 16:100-113 (1986)) and CL203 (Maio, M., J. Immunol. 143:181-188 (1989), all of which references are incorporated herein by reference).
(§2) Binding of RR1, R6.5, and LB-2 mAb was normalized to binding of CL203 mAb using Specific Linear Fluorescence Intensity (SLFI): % CL203=(mAbSLFI)×100)/CL203mABSLFI
(§3) In Table 25, the notation for the mutations uses the one-letter code for the wild-type sequence followed by a slash and the one-letter code for the corresponding mutant sequence. The position of the first amino acid within the sequence is indicated. Wild type residues precede the slash followed by the residues they were substituted for in the mutant. COS cells expressing ICAM-1 mutants were tested for adherence to LFA-1 coated plastic and for binding 35S met-labeled HRV14. LFA-1 and HRV14 binding is normalized for percent of cells expressing mutant ICAM-1 and for binding of wild type expressing cells. Binding is presented as mean and standard error (SE) for multiple experiments (n). Effects of two-fold or greater were reproducible in LFA-1, HRV and mAb binding assays and thus considered significant (bold and underlined). The specific linear fluorescence intensity (SLFI) of CL203 for each mutant is normalized to that of wild type CL203 SLFI (% WT) as discussed above. The SLFI of RR1/1, R6.5 and LB-2 SLFI is normalized to the CL203 SLFI of the mutant (% CL203) as described above.

[4] = system: RR1/1 mAb; assay: Indirect immunofluorescence flow cytofluorometry: mAb RR1/1 binding to COS cells expressing ICAM-1 mutants (SLFI, % CL203); type: cell-based; settings: SLFI normalized to CL203 SLFI of the mutant
Protocol: as §1, §2, §3

[5] = system: R6.5 mAb; assay: Indirect immunofluorescence flow cytofluorometry: mAb R6.5 binding to COS cells expressing ICAM-1 mutants (SLFI, % CL203); type: cell-based; settings: SLFI normalized to CL203 SLFI of the mutant
Protocol: as §1, §2, §3

[6] = system: LB-2 mAb; assay: Indirect immunofluorescence flow cytofluorometry: mAb LB-2 binding to COS cells expressing ICAM-1 mutants (SLFI, % CL203); type: cell-based; settings: SLFI normalized to CL203 SLFI of the mutant
Protocol: as §1, §2, §3

[7] = COS cells expressing the mutant, relative to wild type

T1 sequence (P20701 26-1170): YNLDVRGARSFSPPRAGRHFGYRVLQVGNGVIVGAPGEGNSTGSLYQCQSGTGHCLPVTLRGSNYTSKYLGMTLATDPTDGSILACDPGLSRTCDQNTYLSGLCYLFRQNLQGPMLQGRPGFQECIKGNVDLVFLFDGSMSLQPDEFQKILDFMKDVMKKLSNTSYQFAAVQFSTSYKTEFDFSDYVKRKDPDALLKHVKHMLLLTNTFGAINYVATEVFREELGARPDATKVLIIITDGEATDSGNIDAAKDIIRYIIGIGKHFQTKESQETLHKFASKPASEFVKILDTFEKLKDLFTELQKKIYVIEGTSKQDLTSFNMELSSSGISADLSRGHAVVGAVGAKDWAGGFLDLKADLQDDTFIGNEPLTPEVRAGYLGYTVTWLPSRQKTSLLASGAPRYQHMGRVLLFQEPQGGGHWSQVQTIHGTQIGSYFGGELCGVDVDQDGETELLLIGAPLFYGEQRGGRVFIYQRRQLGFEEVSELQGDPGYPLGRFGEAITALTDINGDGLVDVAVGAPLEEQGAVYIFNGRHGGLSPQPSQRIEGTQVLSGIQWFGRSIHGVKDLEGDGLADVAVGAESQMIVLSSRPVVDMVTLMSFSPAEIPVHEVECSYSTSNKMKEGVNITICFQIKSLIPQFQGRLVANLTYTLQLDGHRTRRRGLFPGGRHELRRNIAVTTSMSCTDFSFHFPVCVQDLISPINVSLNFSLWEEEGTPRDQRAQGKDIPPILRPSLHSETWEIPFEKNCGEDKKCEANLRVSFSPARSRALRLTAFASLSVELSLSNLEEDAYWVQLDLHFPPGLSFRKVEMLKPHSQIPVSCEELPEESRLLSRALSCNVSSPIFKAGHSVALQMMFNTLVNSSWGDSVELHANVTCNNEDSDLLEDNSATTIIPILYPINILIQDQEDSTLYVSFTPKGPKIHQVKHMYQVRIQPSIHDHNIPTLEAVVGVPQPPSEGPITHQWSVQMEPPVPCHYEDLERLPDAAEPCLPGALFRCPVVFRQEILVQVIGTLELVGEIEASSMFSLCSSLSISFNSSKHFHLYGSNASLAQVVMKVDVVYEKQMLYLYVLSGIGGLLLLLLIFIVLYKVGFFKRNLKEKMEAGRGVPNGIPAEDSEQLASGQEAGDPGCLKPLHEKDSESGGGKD
T1 sequence (P05107 23-769): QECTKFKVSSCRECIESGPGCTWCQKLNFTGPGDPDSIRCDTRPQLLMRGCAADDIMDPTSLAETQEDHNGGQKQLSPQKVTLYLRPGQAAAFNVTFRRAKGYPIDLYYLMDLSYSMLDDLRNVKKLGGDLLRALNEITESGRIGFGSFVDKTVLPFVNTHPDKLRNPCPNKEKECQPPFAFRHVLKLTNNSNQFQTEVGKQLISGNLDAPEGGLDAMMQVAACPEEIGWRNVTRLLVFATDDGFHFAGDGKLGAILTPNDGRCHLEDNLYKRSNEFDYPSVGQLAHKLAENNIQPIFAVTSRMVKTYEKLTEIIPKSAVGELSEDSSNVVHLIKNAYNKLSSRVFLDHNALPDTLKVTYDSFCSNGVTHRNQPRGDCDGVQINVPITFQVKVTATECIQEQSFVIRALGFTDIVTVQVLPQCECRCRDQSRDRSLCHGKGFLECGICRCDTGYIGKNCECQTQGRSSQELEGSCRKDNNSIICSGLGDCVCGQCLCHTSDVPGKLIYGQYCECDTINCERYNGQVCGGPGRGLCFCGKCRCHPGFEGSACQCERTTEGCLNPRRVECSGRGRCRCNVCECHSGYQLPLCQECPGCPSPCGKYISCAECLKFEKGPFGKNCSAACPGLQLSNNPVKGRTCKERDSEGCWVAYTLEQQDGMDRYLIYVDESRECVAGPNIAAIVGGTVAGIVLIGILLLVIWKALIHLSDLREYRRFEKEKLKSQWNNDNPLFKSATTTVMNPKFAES

| Molecule | LFA-1 Binding % [1] [%] | LFA-1 binding of ICAM-1 mutant (in words) [1, 7] | HRV Binding % [2] [%] | Cl203 % WT (SLFI) [3] [% WT] | SLFI (% CL203) RR/1 [4] [% CL203] | SLFI (% CL203) R6.5 [5] [% CL203] | SLFI (% CL203) LB-2 [6] [% CL203] | decrease in LFA-1 binding [1, 7] | LFA-1 binding of ICAM-1 mutant (in words) ([1]; COS cells expressing the mutant, relative to wild type, listed as E34) | HRV14 binding of ICAM-1 mutant (in words) [2, 7] | decrease in HRV14 binding [2, 7] [fold] |
| --- | --- | --- | --- | --- | --- | --- | --- | --- | --- | --- | --- |
| V4/G: ICAM-1 mutant, replacement of V4 with G (protein, UniProt P05362 28-532, looked up, variant V4G) Intercellular adhesion …: QTSGSPSKVILPRGGSVLVTCSTSCDQPKLLGIETPLPKKELLLPGNNRKVYELSNVQEDSQPMCYSNCPDGQSTAKTFLTVYWTPERVELAPLPSWQPVGKNLTLRCQVEGGAPRANLTVVLLRGEKELKREPAVGEPAEVTTTVLVRRDHHGANFSCRTELDLRPQGLELFENTSAPYQLQTFVLPATPPQLVSPRVLEVDTQGTVVCSLDGLFPVSEAQVHLALGDQRLNPTVTYGNDSFSAKASVSVTAEDEGTQRLTCAVILGNQSQETLQTVTIYSFPAPNVILTKPEVSEGTEVTVKCEAHPRAKVTLNGVPAQPLGPRAQLLLKATPEDNGRSFSCSATLEVAGQLIHKNQTRELRVLYGPRLDERDCPGNWTWPENSQQTPMCQAWGNPLPELKCLKDGTFPLPIGESVTVTRDLEGTYLCRARSTQGEVTRKVTVNVLSPRYEIVIITVVAAAVIMGTAGLSTYLYNRQRKIKKYRLQQAQKGTPMKPNTQATPP | 64 | less able to bind to LFA-1 | 30 | 111 | 47 | 73 | 58 | – | – | – | – |
| N175/A: ICAM-1 mutant, glycosylation site N175 replaced with A (protein, UniProt P05362 28-532, looked up, variant N175A) Intercellular adhesion …: QTSVSPSKVILPRGGSVLVTCSTSCDQPKLLGIETPLPKKELLLPGNNRKVYELSNVQEDSQPMCYSNCPDGQSTAKTFLTVYWTPERVELAPLPSWQPVGKNLTLRCQVEGGAPRANLTVVLLRGEKELKREPAVGEPAEVTTTVLVRRDHHGANFSCRTELDLRPQGLELFEATSAPYQLQTFVLPATPPQLVSPRVLEVDTQGTVVCSLDGLFPVSEAQVHLALGDQRLNPTVTYGNDSFSAKASVSVTAEDEGTQRLTCAVILGNQSQETLQTVTIYSFPAPNVILTKPEVSEGTEVTVKCEAHPRAKVTLNGVPAQPLGPRAQLLLKATPEDNGRSFSCSATLEVAGQLIHKNQTRELRVLYGPRLDERDCPGNWTWPENSQQTPMCQAWGNPLPELKCLKDGTFPLPIGESVTVTRDLEGTYLCRARSTQGEVTRKVTVNVLSPRYEIVIITVVAAAVIMGTAGLSTYLYNRQRKIKKYRLQQAQKGTPMKPNTQATPP | 67 | did not appear to substantially effect | 129 | 80 | 162 | 175 | 150 | approximately two-fold | – | – | – |
| N103/K: ICAM-1 mutant, replacement of N103 with K (protein, UniProt P05362 28-532, looked up, variant N103K) Intercellular adhesion …: QTSVSPSKVILPRGGSVLVTCSTSCDQPKLLGIETPLPKKELLLPGNNRKVYELSNVQEDSQPMCYSNCPDGQSTAKTFLTVYWTPERVELAPLPSWQPVGKKLTLRCQVEGGAPRANLTVVLLRGEKELKREPAVGEPAEVTTTVLVRRDHHGANFSCRTELDLRPQGLELFENTSAPYQLQTFVLPATPPQLVSPRVLEVDTQGTVVCSLDGLFPVSEAQVHLALGDQRLNPTVTYGNDSFSAKASVSVTAEDEGTQRLTCAVILGNQSQETLQTVTIYSFPAPNVILTKPEVSEGTEVTVKCEAHPRAKVTLNGVPAQPLGPRAQLLLKATPEDNGRSFSCSATLEVAGQLIHKNQTRELRVLYGPRLDERDCPGNWTWPENSQQTPMCQAWGNPLPELKCLKDGTFPLPIGESVTVTRDLEGTYLCRARSTQGEVTRKVTVNVLSPRYEIVIITVVAAAVIMGTAGLSTYLYNRQRKIKKYRLQQAQKGTPMKPNTQATPP | 12 | substantially incapable of binding LFA-1 | 13 | 91 | 17 | 60 | 22 | – | – | – | – |
| E34/A: ICAM-1 substitution mutant, E34 replaced with A (protein, UniProt P05362 28-532, looked up, variant E34A) Intercellular adhesion …: QTSVSPSKVILPRGGSVLVTCSTSCDQPKLLGIATPLPKKELLLPGNNRKVYELSNVQEDSQPMCYSNCPDGQSTAKTFLTVYWTPERVELAPLPSWQPVGKNLTLRCQVEGGAPRANLTVVLLRGEKELKREPAVGEPAEVTTTVLVRRDHHGANFSCRTELDLRPQGLELFENTSAPYQLQTFVLPATPPQLVSPRVLEVDTQGTVVCSLDGLFPVSEAQVHLALGDQRLNPTVTYGNDSFSAKASVSVTAEDEGTQRLTCAVILGNQSQETLQTVTIYSFPAPNVILTKPEVSEGTEVTVKCEAHPRAKVTLNGVPAQPLGPRAQLLLKATPEDNGRSFSCSATLEVAGQLIHKNQTRELRVLYGPRLDERDCPGNWTWPENSQQTPMCQAWGNPLPELKCLKDGTFPLPIGESVTVTRDLEGTYLCRARSTQGEVTRKVTVNVLSPRYEIVIITVVAAAVIMGTAGLSTYLYNRQRKIKKYRLQQAQKGTPMKPNTQATPP | 0 | completely eliminates LFA-1 binding; also recorded: totally eliminates LFA-1 binding | 66 | 132 | 142 | 150 | 142 | – | substantially less capacity to bind LFA-1 | weak or a non-detectable affect on HRV binding | 2 |
| R13/E: ICAM-1 mutant, replacement of R13 with E (protein, UniProt P05362 28-532, looked up, variant R13E) Intercellular adhesion …: QTSVSPSKVILPEGGSVLVTCSTSCDQPKLLGIETPLPKKELLLPGNNRKVYELSNVQEDSQPMCYSNCPDGQSTAKTFLTVYWTPERVELAPLPSWQPVGKNLTLRCQVEGGAPRANLTVVLLRGEKELKREPAVGEPAEVTTTVLVRRDHHGANFSCRTELDLRPQGLELFENTSAPYQLQTFVLPATPPQLVSPRVLEVDTQGTVVCSLDGLFPVSEAQVHLALGDQRLNPTVTYGNDSFSAKASVSVTAEDEGTQRLTCAVILGNQSQETLQTVTIYSFPAPNVILTKPEVSEGTEVTVKCEAHPRAKVTLNGVPAQPLGPRAQLLLKATPEDNGRSFSCSATLEVAGQLIHKNQTRELRVLYGPRLDERDCPGNWTWPENSQQTPMCQAWGNPLPELKCLKDGTFPLPIGESVTVTRDLEGTYLCRARSTQGEVTRKVTVNVLSPRYEIVIITVVAAAVIMGTAGLSTYLYNRQRKIKKYRLQQAQKGTPMKPNTQATPP | 1 | substantially less capacity to bind LFA-1 | 10 | 202 | 4 | 48 | 4 | – | – | – | – |
| Q58/H: ICAM-1 substitution mutant, Q58 replaced with H (protein, UniProt P05362 28-532, looked up, variant Q58H) Intercellular adhesion …: QTSVSPSKVILPRGGSVLVTCSTSCDQPKLLGIETPLPKKELLLPGNNRKVYELSNVHEDSQPMCYSNCPDGQSTAKTFLTVYWTPERVELAPLPSWQPVGKNLTLRCQVEGGAPRANLTVVLLRGEKELKREPAVGEPAEVTTTVLVRRDHHGANFSCRTELDLRPQGLELFENTSAPYQLQTFVLPATPPQLVSPRVLEVDTQGTVVCSLDGLFPVSEAQVHLALGDQRLNPTVTYGNDSFSAKASVSVTAEDEGTQRLTCAVILGNQSQETLQTVTIYSFPAPNVILTKPEVSEGTEVTVKCEAHPRAKVTLNGVPAQPLGPRAQLLLKATPEDNGRSFSCSATLEVAGQLIHKNQTRELRVLYGPRLDERDCPGNWTWPENSQQTPMCQAWGNPLPELKCLKDGTFPLPIGESVTVTRDLEGTYLCRARSTQGEVTRKVTVNVLSPRYEIVIITVVAAAVIMGTAGLSTYLYNRQRKIKKYRLQQAQKGTPMKPNTQATPP | 109 | substantially normal capacity to bind LFA-1 | 1 | 135 | 93 | 107 | 93 | – | – | virtually eliminated HRV14 binding | – |
